This passage reports Kd results from paper PMC4764128.

For the experiment, the target named is Dup A502,Y503 KIT D4D5 fragment (human) (UniProt P10721). Briefly: SEC-MALS.

Turning to “Dup A502,Y503 KIT D4D5 fragment (from UniProt P10721 308-514) (domain or fragment)”, the Kd was 730 µM.
